The values that follow come from US20190322765A1 (Hoffmann-La Roche, published 2019).

Usually Kd stands for the constant that tells how readily two partners part at equilibrium. The low end stands for tighter binding, the high end for weaker binding. The term EC50 denotes the midpoint of the concentration-response curve. Broadly, the EC50 (read off the curve) is the concentration giving half of the maximal effect.

The target of experiment [1] is T1, cynomolgus IL-2R βγ heterodimer (β knob γ hole Fc fusion) (cynomolgus).
T1 construct: also called Cyno IL-2R βγ
Kind of experiment: SPR, receptor on CM5, 25°C, 1:1 fit. A general note: SPR reads the build-up and loss of mass on a sensor chip optically.

For experiment [2], the target named is T2, human IL-2R βγ heterodimer, subunit-Fc knobs-into-holes fusion (human).
T2 construct: The entries may hold a leader peptide; also called Hu IL-2R βγ; human IL2-R β knob γ hole heterodimer
Put plainly: SPR, receptor on CM5, 25°C, 1:1 fit.

Experiment [3] addresses T3, murine IL-2R βγ heterodimer (β knob γ hole Fc fusion) (murine, UniProt P16297 27-240; P34902 23-263).
T3 construct: also called Mu IL-2R βγ; mouse IL-2R βγ heterodimer; not shown: Fc knob/hole part
T3 sequence (looked up) 1: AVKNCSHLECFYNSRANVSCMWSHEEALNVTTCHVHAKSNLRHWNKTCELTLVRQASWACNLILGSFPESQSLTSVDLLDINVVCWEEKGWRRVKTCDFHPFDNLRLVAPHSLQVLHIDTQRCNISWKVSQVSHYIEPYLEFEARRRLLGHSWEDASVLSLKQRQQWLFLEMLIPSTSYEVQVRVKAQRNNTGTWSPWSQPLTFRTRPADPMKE
T3 sequence (looked up) 2: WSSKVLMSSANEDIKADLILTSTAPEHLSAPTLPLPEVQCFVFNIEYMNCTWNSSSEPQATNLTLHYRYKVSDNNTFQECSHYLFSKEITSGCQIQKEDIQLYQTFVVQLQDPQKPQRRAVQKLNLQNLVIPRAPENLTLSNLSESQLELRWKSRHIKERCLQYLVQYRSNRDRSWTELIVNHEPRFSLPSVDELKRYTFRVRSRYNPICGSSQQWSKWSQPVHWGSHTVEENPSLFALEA
Put plainly: SPR, receptor on CM5, 25°C, 1:1 fit.

For experiment [4], the target named is T4, human FAP expressed on stably transfected HEK293 cells (human, UniProt Q12884 1-760).
T4 construct: whole, on cells
Kind of experiment: FACS on FAP-expressing HEK cells.

Experiment [5] deals with T4, human FAP expressed on stably …. Put plainly: FACS on HEK 293-human FAP cells, median fluorescence against concentration.
Experiment [6] deals with T5, human DPPIV on transfected HEK 293 cells (human, UniProt P27487 1-766).
T5 construct: whole, on cells; also called CD26
Put plainly: FACS on HEK 293-human DPPIV cells, with HEK mock-transfected cells, cells only and sec. antibody as controls; concentration not shown.

The target in experiment [7] is T1, cynomolgus IL-2R βγ heterodimer (β knob …). Put plainly: SPR, receptor on CM5, 37°C, 1:1 fit.
In experiment [8] the target is T2, human IL-2R βγ heterodimer, subunit-Fc …. Put plainly: SPR, receptor on CM5, 37°C, 1:1 fit.
In experiment [9] the target is T3, murine IL-2R βγ heterodimer (β knob γ …). Put plainly: SPR, receptor on CM5, 37°C, 1:1 fit.
The target in experiment [10] is T6, human FAP-His (human, UniProt Q12884 27-760).
T6 construct: also called Hu FAP; His-tagged human FAP; not shown: His tag
Put plainly: SPR bridging: construct captured on immobilized human IL-2R βγ, human FAP analyte, 1:1 fit, 25°C.

Experiment [11] concerns the target T7, murine IL-2R α-subunit, recombinant monomeric (murine, UniProt P01590 22-236, limits assumed).
T7 construct: also called Mu IL-2R α
T7 sequence (looked up): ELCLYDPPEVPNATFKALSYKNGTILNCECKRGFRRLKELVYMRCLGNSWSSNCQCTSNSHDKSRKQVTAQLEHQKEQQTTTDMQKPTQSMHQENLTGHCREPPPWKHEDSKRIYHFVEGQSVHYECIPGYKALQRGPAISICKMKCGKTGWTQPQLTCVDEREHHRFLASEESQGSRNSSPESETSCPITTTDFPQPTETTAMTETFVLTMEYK
Put plainly: SPR, receptor on CM5, 25°C.

The target in experiment [12] is T8, human IL-2R α-subunit, monomeric, with AcTev cleavage site and Avi His tag (human).
T8 construct: also called Hu IL-2R α; CD25
T8 chain: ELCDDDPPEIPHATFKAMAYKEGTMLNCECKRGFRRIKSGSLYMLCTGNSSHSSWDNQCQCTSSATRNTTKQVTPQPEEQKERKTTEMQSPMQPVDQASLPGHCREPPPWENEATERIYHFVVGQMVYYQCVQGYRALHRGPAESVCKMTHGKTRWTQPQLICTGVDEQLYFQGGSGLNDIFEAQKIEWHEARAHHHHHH
Put plainly: SPR, receptor on CM5, 25°C.

In experiment [13] the target is T9, cynomolgus IL-2R α-subunit, recombinant monomeric (cynomolgus, UniProt H6WS54 22-240).
T9 construct: also called Cyno IL-2R α
T9 sequence: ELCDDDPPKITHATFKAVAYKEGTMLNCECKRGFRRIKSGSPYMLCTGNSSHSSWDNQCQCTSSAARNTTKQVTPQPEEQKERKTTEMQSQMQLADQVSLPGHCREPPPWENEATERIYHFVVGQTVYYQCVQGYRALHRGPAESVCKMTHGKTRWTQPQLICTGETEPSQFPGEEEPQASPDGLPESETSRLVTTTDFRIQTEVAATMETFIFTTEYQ
Put plainly: SPR, receptor on CM5, 25°C.

Experiment [14] deals with FAP on GM05389 fibroblasts. Put plainly: FACS on GM05389 fibroblasts, surface-bound construct detected with secondary antibody after the times shown (internalization analysis); concentration not shown.
The target in experiment [15] is T8, human IL-2R α-subunit, monomeric, with …. Kind of experiment: SPR, receptor on CM5, 25°C, kinetic.
Experiment [16] deals with T2, human IL-2R βγ heterodimer, subunit-Fc …. Put plainly: SPR, receptor on CM5, 25°C, kinetic.

“And” between values parts separate entries of the source, which are not always exact repeats. Equal entries are not always repeated.

B1: 29B11 Fab-IL-2 qm-Fab (other)
chain: EVQLLESGGGLVQPGGSLRLSCAASGFTFSSYAMSWVRQAPGKGLEWVSAIIGSGGITYYADSVKGRFTISRDNSKNTLYLQMNSLRAEDTAVYYCAKGWFGGFNYWGQGTLVTVSSASTKGPSVFPLAPSSKSTSGGTAALGCLVKDYFPEPVTVSWNSGALTSGVHTFPAVLQSSGLYSLSSVVTVPSSSLGTQTYICNVNHKPSNTKVDKKVEPKSCDSGGGGSGGGGSGGGGAPASSSTKKTQLQLEHLLLDLQMILNGINNYKNPKLTRMLTAKFAMPKKATELKHLQCLEEELKPLEEVLNGAQSKNFHLRPRDLISNINVIVLELKGSETTFMCEYADETATIVEFLNRWITFAQSIISTLTSGGGGSGGGGSGGGGEVQLLESGGGLVQPGGSLRLSCAASGFTFSSYAMSWVRQAPGKGLEWVSAIIGSGGITYYADSVKGRFTISRDNSKNTLYLQMNSLRAEDTAVYYCAKGWFGGFNYWGQGTLVTVSSASTKGPSVFPLAPSSKSTSGGTAALGCLVKDYFPEPVTVSWNSGALTSGVHTFPAVLQSSGLYSLSSVVTVPSSSLGTQTYICNVNHKPSNTKVDKKVEPKSCD
light: EIVLTQSPGTLSLSPGERATLSCRASQSVTSSYLAWYQQKPGQAPRLLINVGSRRATGIPDRFSGSGSGTDFTLTISRLEPEDFAVYYCQQGIMLPPTFGQGTKVEIKRTVAAPSVFIFPPSDEQLKSGTASVVCLLNNFYPREAKVQWKVDNALQSGNSQESVTEQDSKDSTYSLSSTLTLSKADYEKHKVYACEVTHQGLSSPVTKSFNRGEC
notes: Fab-IL-2-Fab immunoconjugate against FAP with quadruple mutant IL-2
For the molecule B1, the Kd in [1] was 7.8 nM and 8.4 nM; in experiment [2] it was 12 nM and 7.4 nM; in experiment [3], 60 nM and 63 nM; in experiment [7], 16.7 nM and 18.1 nM; in [8] it was 13.1 nM and 13 nM; in [9], 44 nM and 42 nM. The Kd in experiment [10] is 0.89 nM. The EC50 in experiment [4] turned out to be 0.85 nM. The “EC50 (read off the curve)” value in experiment [5] was ~20 nM. Besides, the binding result in experiment [6] was “no binding”; in experiment [11] it was “no binding (tested: 25 nM)”; in [12], “no binding (tested: 25 nM)”; in [13], “no binding (tested: 25 nM)”; in [14], “binds”.

B2: MHLG1-KV9 Fab-IL-2 qm-Fab (other)
chain: EVQLVESGGGLVKPGGSLRLSCAASGFTFSNYWMNWVRQAPGKGLEWVAEIRLKSNNFGRYYAASVKGRFTISRDDSKNTLYLQMNSLKTEDTAVYYCTTYGNYVGHYFDHWGQGTTVTVSSASTKGPSVFPLAPSSKSTSGGTAALGCLVKDYFPEPVTVSWNSGALTSGVHTFPAVLQSSGLYSLSSVVTVPSSSLGTQTYICNVNHKPSNTKVDKKVEPKSCDSGGGGSGGGGSGGGGAPASSSTKKTQLQLEHLLLDLQMILNGINNYKNPKLTRMLTAKFAMPKKATELKHLQCLEEELKPLEEVLNGAQSKNFHLRPRDLISNINVIVLELKGSETTFMCEYADETATIVEFLNRWITFAQSIISTLTSGGGGSGGGGSGGGGEVQLVESGGGLVKPGGSLRLSCAASGFTFSNYWMNWVRQAPGKGLEWVAEIRLKSNNFGRYYAASVKGRFTISRDDSKNTLYLQMNSLKTEDTAVYYCTTYGNYVGHYFDHWGQGTTVTVSSASTKGPSVFPLAPSSKSTSGGTAALGCLVKDYFPEPVTVSWNSGALTSGVHTFPAVLQSSGLYSLSSVVTVPSSSLGTQTYICNVNHKPSNTKVDKKVEPKSCD
light: DIQLTQSPSFLSASVGDRVTITCKASQNVDTNVAWYQQKPGQAPRPLIYSASYRYTGVPSRFSGSGSGTEFTLTISSLQPEDFATYYCQQYNSYPLTFGGGTKVEIKRTVAAPSVFIFPPSDEQLKSGTASVVCLLNNFYPREAKVQWKVDNALQSGNSQESVTEQDSKDSTYSLSSTLTLSKADYEKHKVYACEVTHQGLSSPVTKSFNRGEC
notes: Fab-IL-2-Fab immunoconjugate against MCSP with quadruple mutant IL-2; also called MHLG1 KV9 MCSP-targeted Fab-IL2QM-Fab
Consider B2, for which the binding result in experiment [15] is “no binding (tested: 33.3 nM)”. The Kd in experiment [16] is 7.3 nM and 10.7 nM.
